Source: patent US8679766B2, “E-cadherin as a biomarker of gastroesophageal reflux disease” (The University of North Carolina at Chapel Hill, priority 2009, dated 2014)

Test system: rabbit EE
Assay: Barrier breaker search: rabbit EE in U-chambers, monitoring RT (marker of PCP) and Isc
Assay type: cell-based
Details: at pH 2
Excerpt: Agents that increase paracellular permeability (PCP) in EE are potential contributors to GERD by enabling diffusion of luminal acid into the intercellular space. Therefore, substances were sought within the refluxate, meals and inflammation that could ‘break the barrier’. This was done by exposing rabbit EE in U-chambers to candidate inflammatory agents while both monitoring RT, as a marker of PCP, and Isc (short circuit current), as a marker of active transport. The inflammatory agents were selected based on presence in EE or on reports that they can break the barrier in other epithelia (47-60).

B1: pepsin: barrier breaker identified at pH 2 (protein, UniProt P0DJD8 63-388, looked up)
Pepsin A-3: VDEQPLENYLDMEYFGTIGIGTPAQDFTVVFDTGSSNLWVPSVYCSSLACTNHNRFNPEDSSTYQSTSETVSITYGTGSMTGILGYDTVQVGGISDTNQIFGLSETEPGSFLYYAPFDGILGLAYPSISSSGATPVFDNIWNQGLVSQDLFSVYLSADDQSGSVVIFGGIDSSYYTGSLNWVPVTVEGYWQITVDSITMNGEAIACAEGCQAIVDTGTSLLTGPTSPIANIQSDIGASENSDGDMVVSCSAISSLPDIVFTINGVQYPVPPSAYILQSEGSCISGFQGMNLPTESGELWILGDVFIRQYFTVFDRANNQVGLAPVA
With B1 the “breaks the barrier (RT as marker of PCP)” value was “barrier breakers”.
